In patent US20120021993A1 (AJOU UNIVERSITY INDUSTRY ACADEMIC COOPERATION FOUNDATION, published 2012):
Where a chain is given by its changes, count along the chain named.

What was measured:
[1] = target: T1, human-derived cell death receptor 4, extracellular domain (amino acid residues 1-216), 6xHis tag (human, UniProt O00220 24-239); assay: ELISA, homo-dimer against monomer
T1 construct: extracellular domain; Expressed in E. coli; biotinylated for sorting and flow cytometry; residues 1-216; also called DR4; TRAIL-receptor 1

[2] = target: T1, human-derived cell death receptor 4, …; assay: ELISA, target coated on the plate
cell surface DR4 = cell surface DR4 (human, UniProt O00220 24-468); assay: cell-based or functional assay
[3] = target: T1, human-derived cell death receptor 4, …; assay: affinity ELISA, target coated on the plate
Method: (§1) In order to measure the affinity and cross reactivity of the anti-DR4, -DR5 and -TNFα protein scaffold variants based on the Kringle domain structure to the target molecules, an enzyme-linked immunosorbent assay (ELISA) was performed. The target molecules DR4, DR5, TNFα and DcR1, DcR2 were attached to a 96 well EIA/RIA plate (COSTARCorning In., USA) by its reaction at 37° C. for 1 hour, and washed three times with 0.1% PBST (0.1% Tween20, pH 7.4, 137 mM NaCl, 10 mM Phosphate, 2.7 mM KCl, SIGMA-ALDRICH Co., USA) for 10 minutes. The target molecules were attached for 1 hour to a 96 well EIA/RIA plate in 1% PBSB (1% BSA, pH 7.4, 137 mM NaCl, 10 mM Phosphate, 2.7 mM KCl, SIGMA-ALDRICH Co., USA), and then washed three times with 0.1% PBST (0.1% Tween 20, pH 7.4, 137 mM NaCl, 10 mM Phosphate, 2.7 mM KCl, SIGMA-ALDRICH Co., USA) for 10 minutes. Then, the anti-DR4, -DR5 and -TNFα Kringle domain variants were bound, and washed three times with 0.1% PBST for 10 minutes. The anti-DR4, -DR5 and -TNFα Kringle domain variants were primarily bound to mouse-derived anti-c-myc 9e10 mAb (Ig Therapy, Korea), and secondarily bound to alkaline phosphatase (AP)-conjugated anti-mouse mAb (Sigma). Each of the Kringle domain variants was reacted with […] (pNPP, Sigma-aldrich Co., USA) and quantified at an absorbance of 405 nm.
(§2) In order to analyze the affinities of the Fc-fused anti-DR4, -DR5 and -TNFα Kringle domains to target molecules, the affinities of the Fc-fused anti-DR4, -DR5 and -TNFα Kringle domains to the target molecules were analyzed using ELISA, as described in Example 8.

[4] = target: T2, TNFα, extracellular domain (amino acid residue 1-157), 6xHis tag (human, UniProt P01375 57-233); assay: ELISA, coated target, A405
T2 construct: extracellular domain; Expressed in E. coli; The printed residues 1-157 seem to count on the soluble form, not on the precursor; also called human TNFα; tumor necrosis factor alpha
T2 sequence (P01375 other isoform, or with tags, fused parts or gaps limits assumed): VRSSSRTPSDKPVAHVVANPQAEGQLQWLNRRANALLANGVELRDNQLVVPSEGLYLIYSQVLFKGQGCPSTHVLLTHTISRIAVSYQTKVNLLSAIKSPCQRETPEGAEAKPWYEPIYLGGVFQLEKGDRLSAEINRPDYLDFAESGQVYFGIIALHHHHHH
Method: as §1

[5] = target: T1, human-derived cell death receptor 4, …; assay: ELISA, coated target, single binder concentration not given, A405
Method: as §1

cell surface DR5 = cell surface DR5 (human, UniProt O14763 56-440); assay: cell-based or functional assay
[6] = target: T3, human-derived cell death receptor 5, extracellular domain (amino acid residues 1-130), 6xHis tag (human, UniProt O14763 56-210); assay: affinity ELISA, target coated on the plate
T3 construct: extracellular domain; Expressed in E. coli; biotinylated for sorting and flow cytometry; also called DR5; TRAIL-receptor 2
Method: as §1, §2

DcR1 [7] = target: T4, DcR1 (UniProt O14798 26-221, limits assumed); assay: yeast display, flow cytometry MFI [panel KD413]
T4 sequence (looked up): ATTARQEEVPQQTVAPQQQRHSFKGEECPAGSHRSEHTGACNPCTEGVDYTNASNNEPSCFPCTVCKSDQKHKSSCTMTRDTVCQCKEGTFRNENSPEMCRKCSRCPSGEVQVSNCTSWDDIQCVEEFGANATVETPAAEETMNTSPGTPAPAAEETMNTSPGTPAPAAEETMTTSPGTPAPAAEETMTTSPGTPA

DcR2 [8] = target: T5, DcR2 (UniProt Q9UBN6 56-211, limits assumed); assay: yeast display, flow cytometry MFI [panel KD413]
T5 sequence (looked up): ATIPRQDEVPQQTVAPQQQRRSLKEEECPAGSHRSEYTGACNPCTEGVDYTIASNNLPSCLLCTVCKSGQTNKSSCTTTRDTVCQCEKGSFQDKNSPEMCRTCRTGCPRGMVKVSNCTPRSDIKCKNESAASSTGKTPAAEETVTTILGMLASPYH

DcR1 [9] = target: T4, DcR1; assay: yeast display, flow cytometry MFI [panel KD548]
DcR2 [10] = target: T5, DcR2; assay: yeast display, flow cytometry MFI [panel KD548]
[11] = target: T1, human-derived cell death receptor 4, …; assay: ELISA, coated target, A405
[12] = target: T3, human-derived cell death receptor 5, …; assay: ELISA, homo-dimer against monomer
[13] = target: T3, human-derived cell death receptor 5, …; assay: ELISA, target coated on the plate

B1: anti-DR4 KD413 homo-dimer (designed binder)
chain: CAKAEGTGYDGHEHKTHKGIRCQNWYKSKPHYHGHQFRDGDKIKNKKNYCRNPDPRAGPWCFTHGNRNRYELCNQPRCGGGGSGGGGSGGGGSGGGGSCAKAEGTGYDGHEHKTHKGIRCQNWYKSKPHYHGHQFRDGDKIKNKKNYCRNPDPRAGPWCFTHGNRNRYELCNQPRC
fold increase of affinity against the monomer [1]: ~10 fold
affinity value [2]: 43 nM

B2: KD415-Fc (Fc fusion)
chain: CTRSKGDEYDGHKHKTNRGLRCQHWPGTKPHFHGDKIKDRHGFRLKKNYCRNPDPQDQPWCFTNRHQHKNELCNQPRC
notes: Disulfide-linked dimer from Pichia pastoris; also called Fc-fused anti-DR4 Kringle domain KD415; not shown: Fc domain region from a hinge of human immunoglobulin G1
EC50 (a concentration of protein causing a 50% cell death), HL60, MTT assay (cell surface DR4): 60 nM
EC50 (a concentration of protein causing a 50% cell death), Jurkat, MTT assay (cell surface DR4): 80 nM
affinity [3]: 53 nM

B3: anti-DR4 KD415 homo-dimer (designed binder)
chain: CTRSKGDEYDGHKHKTNRGLRCQHWPGTKPHFHGDKIKDRHGFRLKKNYCRNPDPQDQPWCFTNRHQHKNELCNQPRCGGGGSGGGGSGGGGSGGGGSCTRSKGDEYDGHKHKTNRGLRCQHWPGTKPHFHGDKIKDRHGFRLKKNYCRNPDPQDQPWCFTNRHQHKNELCNQPRC
fold increase of affinity against the monomer [1]: ~10 fold
affinity value [2]: 87 nM

B4: KDT01 (designed binder)
chain: CYEDKGPQYDGDEYGTHKGHRCQNWDENRPHPHGIGHQHKHQVKDGKNYCRNPDDETEPWCFTHKDKYGHELCNRPRC
notes: Soluble monomer from Pichia pastoris; also called KRT01; not shown: C-terminal myc tag-6xHis tag of pPICZaA
EC50 (read off the curve) [4]: ~2000 nM
binding result [5]: no binding

B5: KDT02 (designed binder)
chain: CAQDGGPGYDGDKHGTHGGHECQDWTKDGPHIHGFRDQFRDEDQHGKNYCRNPDSQHGPWCFTNEDEHRNELCHEPRC
notes: Soluble monomer from Pichia pastoris; also called KRT02; not shown: C-terminal myc tag-6xHis tag of pPICZaA
EC50 (read off the curve) [4]: ~2000 nM
binding result [5]: no binding

B6: KD506-Fc (Fc fusion)
chain: CPEDRGHEYDGDGDKTNRGHGCQYWDQNKPHHHGHRDKDKFKHRIKKNYCRNPDYETGPWCFTNRYRNKNELCHEPRC
notes: Disulfide-linked dimer from Pichia pastoris; also called Fc-fused anti-DR5 Kringle domain KD506; not shown: Fc domain region from a hinge of human immunoglobulin G1
EC50 (a concentration of protein causing a 50% cell death), HL60, MTT assay (cell surface DR5): 230 nM
EC50 (a concentration of protein causing a 50% cell death), Jurkat, MTT assay (cell surface DR5): 80 nM
affinity [6]: 43 nM

B7: L1234 (KD413) (designed binder)
chain: CAKAEGTGYDGHEHKTHKGIRCQNWYKSKPHYHGHQFRDGDKIKNKKNYCRNPDRELRPWCFTTDPNKRWELCDIPRC
notes: also called KD413L1234
binding result (DcR1 [7]): no binding
binding result (DcR2 [8]): no binding

B8: KD413-Fc (Fc fusion)
chain: CAKAEGTGYDGHEHKTHKGIRCQNWYKSKPHYHGHQFRDGDKIKNKKNYCRNPDPRAGPWCFTHGNRNRYELCNQPRC
notes: Disulfide-linked dimer from Pichia pastoris; also called Fc-fused anti-DR4 Kringle domain KD413; not shown: Fc domain region from a hinge of human immunoglobulin G1
EC50 (a concentration of protein causing a 50% cell death), Jurkat, MTT assay (cell surface DR4): 60 nM
affinity [3]: 60 nM

B9: KD548-Fc (Fc fusion)
chain: CHQTQGPKYDGNKDKTHKGHKCQSWTKNRPHHHGNKIENEDENRFQKNYCRNPDNKHEPWCFTHGHRDKHELCHEPRC
notes: Disulfide-linked dimer from Pichia pastoris; also called Fc-fused anti-DR5 Kringle domain KD548; not shown: Fc domain region from a hinge of human immunoglobulin G1
EC50 (a concentration of protein causing a 50% cell death), HL60, MTT assay (cell surface DR5): 220 nM
affinity [6]: 58 nM

B10: KD413L56 (designed binder)
chain: CMHCSGENYDGKISKTMSGLECQAWDSQSPHAHGYIPSKFPNKNLKKNYCRNPDPRAGPWCFTHGNRNRYELCDIPRC
binding result (DcR1 [7]): no binding
binding result (DcR2 [8]): no binding

B11: L567 (KD413) (designed binder)
chain: B10 chain with D74N, I75Q
notes: also called KD413L567
binding result (DcR1 [7]): no binding
binding result (DcR2 [8]): no binding

B12: KD548L56 (designed binder)
chain: B10 chain with P55N, R56K, A57H, G58E, N66H, N68D, R69K, Y70H
binding result (DcR1 [9]): no binding
binding result (DcR2 [10]): no binding

B13: L5 (KD413) (designed binder)
chain: B10 chain with H64T, G65D, N66P, R67N, N68K, Y70W
notes: also called KD413L5
binding result (DcR1 [7]): no binding
binding result (DcR2 [8]): no binding

B14: L567 (KD548) (designed binder)
chain: CMHCSGENYDGKISKTMSGLECQAWDSQSPHAHGYIPSKFPNKNLKKNYCRNPDNKHEPWCFTHGHRDKHELCHEPRC
notes: also called KD548L567; not shown: Aga2p display anchor, linker and c-myc tag of the pCTCON yeast display vector
binding result (DcR1 [9]): no binding
binding result (DcR2 [10]): no binding

B15: L1234 (KD548) (designed binder)
chain: CHQTQGPKYDGNKDKTHKGHKCQSWTKNRPHHHGNKIENEDENRFQKNYCRNPDRELRPWCFTTDPNKRWELCDIPRC
notes: also called KD548L1234
binding result (DcR1 [9]): no binding
binding result (DcR2 [10]): no binding

B16: KD413-KD415 hetero-dimer (designed binder, not shown: small tags and cut ends)
chain: CAKAEGTGYDGHEHKTHKGIRCQNWYKSKPHYHGHQFRDGDKIKNKKNYCRNPDPRAGPWCFTHGNRNRYELCNQPRCGGGGSGGGGSGGGGSGGGGSCTRSKGDEYDGHKHKTNRGLRCQHWPGTKPHFHGDKIKDRHGFRLKKNYCRNPDPQDQPWCFTNRHQHKNELCNQPRC
EC50 (read off the curve) [11]: ~30 nM

B17: anti-DR5 KD506 homo-dimer (designed binder)
chain: CPEDRGHEYDGDGDKTNRGHGCQYWDQNKPHHHGHRDKDKFKHRIKKNYCRNPDYETGPWCFTNRYRNKNELCHEPRCGGGGSGGGGSGGGGSGGGGSCPEDRGHEYDGDGDKTNRGHGCQYWDQNKPHHHGHRDKDKFKHRIKKNYCRNPDYETGPWCFTNRYRNKNELCHEPRC
fold increase of affinity against the monomer [12]: ~10 fold
affinity value [13]: 31 nM

B18: anti-DR5 KD548 homo-dimer (designed binder)
chain: CHQTQGPKYDGNKDKTHKGHKCQSWTKNRPHHHGNKIENEDENRFQKNYCRNPDNKHEPWCFTHGHRDKHELCHEPRCGGGGSGGGGSGGGGSGGGGSCHQTQGPKYDGNKDKTHKGHKCQSWTKNRPHHHGNKIENEDENRFQKNYCRNPDNKHEPWCFTHGHRDKHELCHEPRC
fold increase of affinity against the monomer [12]: ~10 fold
affinity value [13]: 53 nM
